Measurements taken from patent US20200270588A1, “GLUCOSYL TRANSFERASE POLYPEPTIDES AND METHODS OF USE” (Syngenta Participations AG, priority 2017, published 2020).
Residue numbers refer to the chain shown, from its start. Names and notes keep the numbering of the source.

B1: A432Q: bx9 SEQ ID NO:1 mutant (protein)
chain: MASSRTGAGAGGRVVVFPFPFQGHFNPVMRLARALHARGLAITVFHSGALDPADYPADYRFVPVTVEADPKLLASEDIAAIVTTLNASCDAPFRARLSALLAAEGRDSVRCVFTDVSWNAVLTASSDLGVPALGMMTASAASLRDYMAYRTLIDKGYLPVKEERKEDPVPELPPYLVKDLLRVDTSDLEEFAELLARTVTAARRASGLIFNTFPLIETDTLAEIHKALSVPVFAVAPLNKLVPTATASLHGVVQADRGCLQWLDTQQPGSVLYVSFGSMAAMDPHEFVELAWGLADSKRPFVWVVRPNLIRGFESGALPDGVEDEVRGRGIVVAWAPQEEVLAHPAVGGFLTHNGWNSTVEAISEGVPMVCCPRHGDQFGNMRYVCDVWKVGTELVGEQLERGQVKAAIDRLFGTKEGEEIKERMKEFKIAQAKGIGIGVDVDETASPRTDLTDLVDLIKSF
modifications: Zea mays
B2: A432N: bx9 SEQ ID NO:1 mutant (protein)
chain: B1 chain with Q432N
modifications: Zea mays
B3: E339V: additional mutation in SEQ ID No: 17 (protein)
chain: B1 chain with S117V, M279F, A334K, E339V, Q432A
modifications: Mutated Zea mays Bx9 protein sequence
B4: L215D: additional mutation in SEQ ID No: 17 (protein)
chain: B1 chain with S117V, L215D, M279F, A334K, Q432A
modifications: Mutated Zea mays Bx9 protein sequence
B5: A234C: additional mutation in SEQ ID No: 17 (protein)
chain: B1 chain with S117V, A234C, M279F, A334K, Q432A
modifications: Mutated Zea mays Bx9 protein sequence
B6: W303L: additional mutation in SEQ ID No: 17 (protein)
chain: B1 chain with S117V, M279F, W303L, A334K, Q432A
modifications: Mutated Zea mays Bx9 protein sequence
B7: E339A (protein)
chain: B1 chain with M279F, E339A, H375Y, Q432A
modifications: C-terminal His tag; Zea mays
B8: I216Y: additional mutation in SEQ ID No: 17 (protein)
chain: B1 chain with S117V, I216Y, M279F, A334K, Q432A
modifications: Mutated Zea mays Bx9 protein sequence
B9: P214D: additional mutation in SEQ ID No: 17 (protein)
chain: B1 chain with S117V, P214D, M279F, A334K, Q432A
modifications: Mutated Zea mays Bx9 protein sequence
B10: A432T: bx9 SEQ ID NO:1 mutant (protein)
chain: B1 chain with Q432T
modifications: Zea mays
B11: F313M: additional mutation in SEQ ID No: 17 (protein)
chain: B1 chain with S117V, M279F, F313M, A334K, Q432A
modifications: Mutated Zea mays Bx9 protein sequence
B12: A432H: bx9 SEQ ID NO:1 mutant (protein)
chain: B1 chain with Q432H
modifications: Zea mays
B13: P284F: additional mutation in SEQ ID No: 17 (protein)
chain: B1 chain with S117V, M279F, P284F, A334K, Q432A
modifications: Mutated Zea mays Bx9 protein sequence
B14: A432V: bx9 SEQ ID NO:1 mutant (protein)
chain: B1 chain with Q432V
modifications: Zea mays

Experiments:
[1] = UDP luminescence plate assay of E. coli extracts, mutants within SEQ ID No: 17, 2 mM metribuzin; format: biochemical, Zea mays; settings: for RATIO of the metribuzin signal to the DMSO signal: 2 mM metribuzin vs DMSO control, same mutant; for SIGNAL: metribuzin signal of mutant divided by the signal of the SEQ ID No. 17 control / luminescence signal observed with 2 mM metribuzin / metribuzin signal relative to the SEQ ID No:17 control (first parentheses) / ratio of metribuzin to DMSO signal (second parentheses): 2 mM metribuzin; for SIGNAL: metribuzin signal of mutant divided by the signal of the SEQ ID No. 17 control: relative to SEQ ID No: 17 control; for luminescence signal in the DMSO control / luminescence signal observed with 2 mM metribuzin: additional mutations within SEQ ID No: 17; for luminescence signal in the DMSO control: DMSO in place of metribuzin; for luminescence signal observed with 2 mM metribuzin: control = SEQ ID No: 17; for metribuzin signal relative to the SEQ ID No:17 control (first parentheses) / ratio of metribuzin to DMSO signal (second parentheses): additional mutation in SEQ ID No: 17
Experimental: Activities observed with metribuzin were generally lower in magnitude than seen with herbicide V in the previous examples. For example, in one plate assay run with 2 mM metribuzin using 5 ul of diluted extract of plate-grown BL21DE3 cells expressing w/t bx9 and assayed for 40 minutes (as described in Example 2) the UDP-Glo luminescence signal was ˜3.4 E6 as compared with ˜2.3E6 in the DMSO control and ˜1.7E6 in the H24A null mutant control. […] It was therefore important to assess potential improvements in the metribuzin activity of the various mutants relative to the wild type bx9 enzyme based not only on the H24A null activity control but also based upon controls with DMSO in place of metribuzin acceptor substrate. In some plate assays (using more dilute extracts) the metribuzin signals from the w/t enzyme was the same or barely greater than the DMSO control. Additionally, some mutations gave an increase in the ‘background’ UDP-glucose hydrolysis activity with just DMSO present that was the same or similar to the magnitude of the increase in signal seen with metribuzin. In these instances it is therefore uncertain from just this UDP-Glo assay method whether the specific metribuzin signal (glucosylation of metribuzin) is improved or not i.e. the signal seen with metribuzin may or may not all or to a large part be attributable to increased background hydrolysis). […] Thus the ratio of the metribuzin to DMSO signal as well as the increase in signal relative to the w/t bx9 is used to help distinguish those mutations most likely to offer the highest activity to metribuzin. A follow up assay monitored by, for example, LC MS is one method to distinguish these cases more quantitatively. The tables below summarise the results from two different sets of luminescence plate assays to detect single mutations giving improvements in the magnitude of the signal with metribuzin relative to w/t bx9 and/or the apparent specificity for metribuzin as measured by the deviation of the ratio of metribuzin to DMSO control activity from the bx9 w/t value of around unity.
A further separate screen was carried out to explore a library of additional mutations at various positions within the context of SEQ ID No: 17 for improved metribuzin activity. These were assayed, assessed and scored as above. […] These were S75K (2.5)(1.25), A236G (4.0)(1.15), A433V (3.3)(9.0) and R449C (1.8)(1.2).
A yet further and more comprehensive screen was carried out to explore saturation mutagenesis at all remaining amino acid positions within the context of SEQ ID No:17 for improved metribuzin activity. Again these were assayed, assessed and scored as above and the results of (out of the thousands screened) of the subset that were of interest are summarized in Table 16.

[2] = UDP luminescence plate assay of E. coli extracts, mutants of SEQ ID No: 1, 2 mM metribuzin; format: biochemical, Zea mays; settings: 2 mM metribuzin
Outline: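 Extracts of E. coli BL21 DE3 expressing C-terminally His-tagged SEQ ID NO:1 variants incubated with 2 mM metribuzin; UDP formed read by UDP-Glo luminescence against a UDP standard curve, with optional 95 C stop. Mutants ranked by metribuzin/DMSO signal ratio and signal increase over wild-type bx9.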

Molecule	RATIO of the metribuzin signal to the DMSO signal [1]	SIGNAL: metribuzin signal of mutant divided by the signal of the SEQ ID No. 17 control [1]	luminescence signal in the DMSO control [1]	luminescence signal observed with 2 mM metribuzin [1]	factor of increased signal relative to the bx9 w/t control signal (first parentheses) [2]	ratio of activity with metribuzin relative to activity with DMSO (second parentheses) [2]	metribuzin signal relative to the SEQ ID No:17 control (first parentheses) [1]	ratio of metribuzin to DMSO signal (second parentheses) [1]
B1	1.20	4.09	6.22E+06	7.46E+06	6	1.35		
B2		4.21	6.13E+06	7.67E+06				
B3		2.64	3.18E+06	4.81E+06			2.6	1.51
B4		3.14	4.26E+06	5.72E+06			3.1	1.34
B5		2.96	4.20E+06	5.40E+06			3.0	1.29
B6		2.30	3.10E+06	4.20E+06			2.3	1.35
B7	1.53	2.01	2.39E+06	3.66E+06				
B8		3.50	4.79E+06	6.38E+06			3.5	1.33
B9		3.66	4.99E+06	6.67E+06			3.7	1.34
B10	1.17	3.57	5.56E+06	6.51E+06	3.5	1.35		
B11	1.29	1.91	2.69E+06	3.48E+06			1.9	1.30
B12		3.44	6.08E+06	6.28E+06				
B13		1.81	2.55E+06	3.30E+06			1.8	1.29
B14		3.88	5.69E+06	7.07E+06				
